Data as given in publication PMC9482650, “Quantitative fragmentomics allow affinity mapping of interactomes” (Nature Communications, 2022).

T1: DVL3, Q92997
T1 sequence (Q92997 244-331, limits assumed, looked up): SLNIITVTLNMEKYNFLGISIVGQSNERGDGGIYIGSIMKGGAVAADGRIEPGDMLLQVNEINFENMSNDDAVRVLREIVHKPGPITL

T2: CARD11, Q9BXL7
T2 sequence (Q9BXL7 662-765, limits assumed, looked up): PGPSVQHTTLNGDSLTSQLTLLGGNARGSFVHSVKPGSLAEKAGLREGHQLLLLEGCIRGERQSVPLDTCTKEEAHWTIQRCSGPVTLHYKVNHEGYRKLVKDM

T3: APBA3_1, O96018
T3 sequence (O96018 389-490, limits assumed, looked up): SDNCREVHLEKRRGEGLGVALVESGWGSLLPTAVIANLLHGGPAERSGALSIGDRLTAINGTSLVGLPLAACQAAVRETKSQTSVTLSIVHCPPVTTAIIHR

T4: TJP3_3, O95049
T4 sequence (O95049 375-456, limits assumed, looked up): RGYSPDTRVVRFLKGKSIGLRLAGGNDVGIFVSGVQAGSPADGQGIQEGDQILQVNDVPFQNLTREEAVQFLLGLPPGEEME

T5: FRMPD1, Q5SYB0
T5 sequence (Q5SYB0 52-145, limits assumed, looked up): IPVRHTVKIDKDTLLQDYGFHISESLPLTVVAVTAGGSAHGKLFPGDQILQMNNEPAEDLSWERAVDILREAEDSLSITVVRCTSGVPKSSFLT

T6: GRIP1_2, Q9Y3R0
T6 sequence (Q9Y3R0 145-248, limits assumed, looked up): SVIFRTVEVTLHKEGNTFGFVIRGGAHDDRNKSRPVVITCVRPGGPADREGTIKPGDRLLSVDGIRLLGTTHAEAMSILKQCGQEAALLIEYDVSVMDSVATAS

T7: MPP6, Q9NZW5
T7 sequence (Q9NZW5 125-219, limits assumed, looked up): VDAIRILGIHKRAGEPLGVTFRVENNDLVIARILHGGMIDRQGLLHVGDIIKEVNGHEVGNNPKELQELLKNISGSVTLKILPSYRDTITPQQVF

T8: NHERF3_1, Q5T2W1
T8 sequence (Q5T2W1 4-100, limits assumed, looked up): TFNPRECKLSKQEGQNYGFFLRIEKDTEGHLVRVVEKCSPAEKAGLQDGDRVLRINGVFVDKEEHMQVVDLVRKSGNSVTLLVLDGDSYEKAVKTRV

T9: PCLO, Q9Y6V0
T9 sequence (Q9Y6V0 4491-4600, limits assumed, looked up): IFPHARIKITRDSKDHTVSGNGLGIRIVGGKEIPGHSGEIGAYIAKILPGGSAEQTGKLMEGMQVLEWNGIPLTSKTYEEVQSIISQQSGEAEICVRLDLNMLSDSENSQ

T10: APBA2_1, Q99767
T10 sequence (Q99767 563-664, limits assumed, looked up): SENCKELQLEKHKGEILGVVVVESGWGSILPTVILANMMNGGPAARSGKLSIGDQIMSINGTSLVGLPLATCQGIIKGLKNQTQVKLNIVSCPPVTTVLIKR

T11: TIAM2, Q8IVF5
T11 sequence (Q8IVF5 885-986, limits assumed, looked up): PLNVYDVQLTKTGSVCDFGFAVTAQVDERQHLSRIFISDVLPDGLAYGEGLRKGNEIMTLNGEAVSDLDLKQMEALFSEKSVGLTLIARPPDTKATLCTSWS

T12: SNTA1, Q13424
T12 sequence (Q13424 82-180, limits assumed, looked up): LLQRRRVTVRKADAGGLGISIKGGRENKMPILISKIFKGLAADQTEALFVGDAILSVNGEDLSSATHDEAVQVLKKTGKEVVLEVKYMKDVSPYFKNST

T13: ARHGEF11, O15085
T13 sequence (O15085 42-136, limits assumed, looked up): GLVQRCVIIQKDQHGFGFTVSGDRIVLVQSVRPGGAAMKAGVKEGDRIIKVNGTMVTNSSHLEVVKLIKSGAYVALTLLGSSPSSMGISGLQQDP


Experiments:
Assay in all cases: holdup assay
Parameters in all cases: key: below the threshold = too weak to quantify, mostly under pKd 3.1 to 4
Conditions in all cases: plain residues with an end cap or a label only (N-terminal biotin on a linker: ado-ado)
ARHGEF12, Q9NZN5-2 = target: ARHGEF12, Q9NZN5-2
DVL3, Q92997 = target: T1, DVL3, Q92997
Inadl_6, Q8NI35 = target: Inadl_6, Q8NI35
CARD11, Q9BXL7 = target: T2, CARD11, Q9BXL7
APBA3_1, O96018 = target: T3, APBA3_1, O96018
NHERF4_2, Q86UT5 = target: NHERF4_2, Q86UT5
TJP3_3, O95049 = target: T4, TJP3_3, O95049
FRMPD1, Q5SYB0 = target: T5, FRMPD1, Q5SYB0
GRIP1_2, Q9Y3R0 = target: T6, GRIP1_2, Q9Y3R0
MPP6, Q9NZW5 = target: T7, MPP6, Q9NZW5
NOS1, P29475 = target: NOS1, P29475
PICK1, Q9NRD5 = target: PICK1, Q9NRD5
NHERF3_1, Q5T2W1 = target: T8, NHERF3_1, Q5T2W1
PCLO, Q9Y6V0 = target: T9, PCLO, Q9Y6V0
CASK, O14936 = target: CASK, O14936
IL16_1, Q14005 = target: IL16_1, Q14005
APBA2_1, Q99767 = target: T10, APBA2_1, Q99767
TIAM2, Q8IVF5 = target: T11, TIAM2, Q8IVF5
GRIP2_3, Q9C0E4 = target: GRIP2_3, Q9C0E4
DLG5_1, Q8TDM6 = target: DLG5_1, Q8TDM6
HTRA2, O43464 = target: HTRA2, O43464
SNTA1, Q13424 = target: T12, SNTA1, Q13424
GRIP2_6, Q9C0E4 = target: GRIP2_6, Q9C0E4
ARHGEF11, O15085 = target: T13, ARHGEF11, O15085
MAGI2_6, Q86UL8 = target: MAGI2_6, Q86UL8
MAGI2_6, Q86UL8, sequence (Q86UL8 1141-1229): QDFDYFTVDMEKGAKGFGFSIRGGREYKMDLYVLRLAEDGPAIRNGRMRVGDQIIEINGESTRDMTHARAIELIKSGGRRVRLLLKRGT

IL16_1, Q14005, sequence (Q14005 210-306): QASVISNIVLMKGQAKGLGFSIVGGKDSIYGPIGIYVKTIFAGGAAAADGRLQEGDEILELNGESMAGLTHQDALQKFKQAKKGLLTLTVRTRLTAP
GRIP2_6, Q9C0E4, sequence (Q9C0E4 648-740): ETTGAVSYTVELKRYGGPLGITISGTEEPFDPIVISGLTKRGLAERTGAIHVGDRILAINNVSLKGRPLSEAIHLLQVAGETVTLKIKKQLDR
NOS1, P29475, sequence (P29475 9-101): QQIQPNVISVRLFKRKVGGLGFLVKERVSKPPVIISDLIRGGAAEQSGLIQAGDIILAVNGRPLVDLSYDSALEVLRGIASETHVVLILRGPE
GRIP2_3, Q9C0E4, sequence (Q9C0E4 238-339): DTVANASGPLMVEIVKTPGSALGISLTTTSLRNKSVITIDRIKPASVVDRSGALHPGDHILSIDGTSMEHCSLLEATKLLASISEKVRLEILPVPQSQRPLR
CASK, O14936, sequence (O14936 487-570): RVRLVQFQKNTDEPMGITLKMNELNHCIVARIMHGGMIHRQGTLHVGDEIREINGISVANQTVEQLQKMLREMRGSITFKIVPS
ARHGEF12, Q9NZN5-2, sequence (Q9NZN5 other isoform, or with tags, fused parts or gaps): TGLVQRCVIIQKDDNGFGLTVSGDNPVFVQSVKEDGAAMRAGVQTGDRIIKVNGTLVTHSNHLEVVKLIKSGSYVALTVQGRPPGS
PICK1, Q9NRD5, sequence (Q9NRD5 17-115): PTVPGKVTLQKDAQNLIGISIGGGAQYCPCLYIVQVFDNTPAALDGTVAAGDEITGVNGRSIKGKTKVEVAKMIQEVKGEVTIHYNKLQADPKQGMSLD
Inadl_6, Q8NI35, sequence (Q8NI35 1058-1167): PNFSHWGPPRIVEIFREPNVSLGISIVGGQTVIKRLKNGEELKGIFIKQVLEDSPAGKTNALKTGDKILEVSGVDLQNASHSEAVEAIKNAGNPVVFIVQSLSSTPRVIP
NHERF4_2, Q86UT5, sequence (Q86UT5 220-308): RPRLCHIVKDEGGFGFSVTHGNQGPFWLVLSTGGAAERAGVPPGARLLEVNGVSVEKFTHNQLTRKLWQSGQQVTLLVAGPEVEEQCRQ
DLG5_1, Q8TDM6, sequence (Q8TDM6 617-713): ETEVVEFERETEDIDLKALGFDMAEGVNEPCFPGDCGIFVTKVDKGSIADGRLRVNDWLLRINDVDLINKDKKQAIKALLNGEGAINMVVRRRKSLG
HTRA2, O43464, sequence (O43464 355-458): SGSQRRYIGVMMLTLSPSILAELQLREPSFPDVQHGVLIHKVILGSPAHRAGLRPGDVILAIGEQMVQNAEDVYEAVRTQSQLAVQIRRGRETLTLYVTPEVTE

Binder | pKd (ARHGEF12, Q9NZN5-2) | pKd (DVL3, Q92997) | pKd (Inadl_6, Q8NI35) | pKd (CARD11, Q9BXL7) | pKd (APBA3_1, O96018) | pKd (NHERF4_2, Q86UT5) | pKd (TJP3_3, O95049) | pKd (FRMPD1, Q5SYB0) | pKd (GRIP1_2, Q9Y3R0) | pKd (MPP6, Q9NZW5) | pKd (NOS1, P29475) | pKd (PICK1, Q9NRD5) | pKd (NHERF3_1, Q5T2W1) | pKd (PCLO, Q9Y6V0) | pKd (CASK, O14936) | pKd (IL16_1, Q14005) | pKd (APBA2_1, Q99767) | pKd (TIAM2, Q8IVF5) | pKd (GRIP2_3, Q9C0E4) | pKd (DLG5_1, Q8TDM6) | further results
NLQEHSTTSV [RSBN1, Q5VWQ0] | 4 | below the threshold | below the threshold | below the threshold | below the threshold | below the threshold | below the threshold | below the threshold | below the threshold | 3.69 | below the threshold | below the threshold | below the threshold | below the threshold | below the threshold | below the threshold | below the threshold | below the threshold | below the threshold | below the threshold | pKd (HTRA2, O43464): below the threshold; pKd (SNTA1, Q13424): below the threshold; pKd (GRIP2_6, Q9C0E4): below the threshold; pKd (ARHGEF11, O15085): 4.13; pKd (MAGI2_6, Q86UL8): 4.16
HLRQQGSVEV [EPHB6, O15197] | 3.67 | below the threshold | below the threshold | below the threshold | below the threshold | below the threshold | below the threshold | below the threshold | below the threshold | below the threshold | 3.88 | below the threshold | below the threshold | below the threshold | below the threshold | below the threshold | below the threshold | below the threshold | below the threshold | below the threshold | pKd (HTRA2, O43464): below the threshold; pKd (SNTA1, Q13424): below the threshold; pKd (GRIP2_6, Q9C0E4): 3.93; pKd (ARHGEF11, O15085): 4.13; pKd (MAGI2_6, Q86UL8): below the threshold
TGLWKSETTV [ADGRA2, Q96PE1] | 4.06 | below the threshold | below the threshold | below the threshold | below the threshold | below the threshold | below the threshold | below the threshold | below the threshold | 3.85 | 3.56 | below the threshold | below the threshold | below the threshold | below the threshold | 3.77 | below the threshold | below the threshold | below the threshold | below the threshold | pKd (HTRA2, O43464): below the threshold; pKd (SNTA1, Q13424): 4.41; pKd (GRIP2_6, Q9C0E4): below the threshold; pKd (ARHGEF11, O15085): 4.13; pKd (MAGI2_6, Q86UL8): 3.85
FTLPAESSEI [PLEKHG7, Q6ZR37] | 4.18 | below the threshold | below the threshold | below the threshold | below the threshold | below the threshold | below the threshold | below the threshold | below the threshold | below the threshold | below the threshold | 3.99 | 3.52 | below the threshold | below the threshold | below the threshold | below the threshold | 4.04 | below the threshold | below the threshold | pKd (HTRA2, O43464): below the threshold; pKd (SNTA1, Q13424): below the threshold; pKd (GRIP2_6, Q9C0E4): below the threshold; pKd (ARHGEF11, O15085): below the threshold; pKd (MAGI2_6, Q86UL8): below the threshold
EWTDERQSKV [GAB3, Q8WWW8] | 3.68 | below the threshold | below the threshold | below the threshold | below the threshold | below the threshold | below the threshold | below the threshold | below the threshold | below the threshold | below the threshold | below the threshold | 4.36 | below the threshold | below the threshold | 3.97 | below the threshold | below the threshold | below the threshold | 3.66 | pKd (HTRA2, O43464): below the threshold; pKd (SNTA1, Q13424): 4.43; pKd (GRIP2_6, Q9C0E4): below the threshold; pKd (ARHGEF11, O15085): 3.75; pKd (MAGI2_6, Q86UL8): 3.53
